Measurements reported in publication PMC3337327, “Crystal structures from the Plasmodium peroxiredoxins: new insights into oligomerization and product binding” (BMC Structural Biology, 2012).

What was measured:
[1] = biological target: Plasmodium knowlesi thioredoxin peroxiredoxin 1 (PkTrx-Px1), full-length His6-tagged construct (P. knowlesi H); assay: LC-MS-TOF mass spectrometry; purified enzyme as isolated, without reducing agent; Agilent LC-MS-TOF, positive ion mode, desalted on a Poroshell 300-SB-C3 column; shows the covalent (disulfide-linked) dimer
[2] = biological target: Plasmodium yoelii thioredoxin peroxiredoxin 1 (PyTrx-Px1), full-length His6-tagged construct (P. yoelii 17XNL); assay: as above
[3] = biological target: Plasmodium yoelii 1-Cys peroxiredoxin of the Prx6 subfamily (PyPrx6), full-length His6-tagged construct (P. yoelii 17XNL); assay: SEC; calibrated Superdex S200 gel filtration column, 10 mM HEPES pH 7.4, 500 mM NaCl; PyPrx6 eluted at 220 mL
[4] = biological target: Plasmodium yoelii 1-Cys peroxiredoxin of the Prx6 subfamily (PyPrx6), full-length His6-tagged construct (P. yoelii 17XNL); assay: crystal structure; PyPrx6-SO2H with glycerol bound, His6-tag intact, 15 mg/mL; 23% PEG 3350, 0.1 M Bis-Tris pH 5.5, 200 mM (NH4)2SO4, 5% ethylene glycol, 20 C; 2.3 A
[5] = biological target: Plasmodium yoelii thioredoxin peroxiredoxin 1 with a 6-residue N-terminal truncation (PyTrx-Px1: Q7-L195) (P. yoelii 17XNL); assay: crystal structure; PyTrx-Px1_ox, His6-tag intact, 4.3 mg/mL; 1.6 M ammonium sulfate, 100 mM HEPES pH 6.8, 200 mM NaAc, 20 mM NaBr, 5% ethylene glycol, 18 C; 2.3 A
[6] = biological target: Plasmodium yoelii thioredoxin peroxiredoxin 1 with a 6-residue N-terminal truncation (PyTrx-Px1: Q7-L195) (P. yoelii 17XNL); assay: LC-MS-TOF mass spectrometry; purified enzyme as isolated, without reducing agent; Agilent LC-MS-TOF, positive ion mode, desalted on a Poroshell 300-SB-C3 column; shows the covalent (disulfide-linked) dimer
[7] = biological target: Plasmodium vivax thioredoxin peroxiredoxin 1 (PvTrx-Px1), full-length His6-tagged construct (P. vivax Salvador I); assay: crystal structure; PvTrx-Px1_ox, His6-tag intact, 8 mg/mL in 10 mM HEPES pH 7.5, 500 mM NaCl; 5% PEG 4K, NaAc pH 4.6, 18 C; 2.5 A
[8] = biological target: Plasmodium vivax thioredoxin peroxiredoxin 1 (PvTrx-Px1), full-length His6-tagged construct (P. vivax Salvador I); assay: crystal structure; PvTrx-Px1_red, His6-tag intact, protein treated with 5 mM TCEP; 19% PEG 3350, 150 mM lithium citrate, 18 C; 2.45 A
[9] = biological target: Plasmodium vivax thioredoxin peroxiredoxin 1 (PvTrx-Px1), full-length His6-tagged construct (P. vivax Salvador I); assay: LC-MS-TOF mass spectrometry; purified enzyme as isolated, without reducing agent; Agilent LC-MS-TOF, positive ion mode, desalted on a Poroshell 300-SB-C3 column; shows the covalent (disulfide-linked) dimer
[10] = biological target: the molecule itself; assay: as above

For “Plasmodium knowlesi thioredoxin peroxiredoxin 1 (PkTrx-Px1), full-length His6-tagged construct (enzyme)”, the stoichiometry N [1] was 2.

Work on “Plasmodium yoelii thioredoxin peroxiredoxin 1 (PyTrx-Px1), full-length His6-tagged construct (enzyme)” yielded a stoichiometry N [2] of 2.

“Plasmodium yoelii 1-Cys peroxiredoxin of the Prx6 subfamily (PyPrx6), full-length His6-tagged construct (enzyme)” was tested, and the stoichiometry N [3] was 2 and the stoichiometry N [4] was 2.

With “Plasmodium yoelii thioredoxin peroxiredoxin 1 with a 6-residue N-terminal truncation (PyTrx-Px1: Q7-L195) (domain or fragment)” the stoichiometry N [5] was 8 and the stoichiometry N [6] was 2.

“Plasmodium vivax thioredoxin peroxiredoxin 1 (PvTrx-Px1), full-length His6-tagged construct (enzyme)” was tested, and the stoichiometry N [7] was 10, the stoichiometry N [8] was 10 and the stoichiometry N [9] was 2.

B1: Plasmodium falciparum thioredoxin peroxiredoxin 1 (PfTrx-Px1), full-length His6-tagged construct (enzyme, P. falciparum 3D7, UniProt Q8IL80 1-195, looked up)
chain: MASYVGREAPYFKAEAVFADNTFGEVNLHDFIGKKYVLLYFYPLDFTFVCPSEIIALDKALDAFKERNVELIGCSVDSKYTHLAWKKTPLTKGGIGNIQHTLISDITKSISRSYNVLFGDSVSLRAFVLIDKQGVVQHLLVNNLAIGRSVEEVLRIIDAVQHHEQHGDVCPANWKKGKVAMKPSEEGVSEYLSKL
modifications: intermolecular disulfide between the peroxidatic and resolving cysteines (C50, C170) in the enzyme as purified
notes: thioredoxin peroxiredoxin 1 (Trx-Px1, 2-Cys Prx, Prx1 subfamily), P. falciparum 3D7, PlasmoDB PF14_0368, full length; N-terminal Met of the tag is clipped in E. coli; also called Trx-Px1 from P. falciparum
For B1, the “stoichiometry N” value [10] was 2.
